The values that follow are results of earlier work, collected in paper PMC12634839.

This data set concerns the target FAM19A5 (Homo sapiens) (UniProt Q7Z5A7). In words: SPR. On the technique in general: SPR reads the build-up and loss of mass on a sensor chip optically.
Sequence of UniProt Q7Z5A7 (Q7Z5A7 44-132): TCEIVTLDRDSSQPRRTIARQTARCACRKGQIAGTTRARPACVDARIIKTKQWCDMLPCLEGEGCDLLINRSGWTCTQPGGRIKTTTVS

As usually defined, the Kd is the free concentration of one partner at which half of the binding sites on the other are occupied at equilibrium, for simple one-to-one binding. Consider LRRC4B 453-576 (from UniProt Q9NT99), for which the Kd was 0.032 nM.
